Results on one substance are retold here after patent publication US7378087.

Experiment [1] concerns the target H-2K^b MHC class I molecule (mouse) (UniProt P01901). In words: FACS on RMA cells; IFN -, peptide -, hβ2m -.
Experiment [2] shares this target. The experiment can be described thus: FACS on RMA cells; IFN +, peptide -, hβ2m +.
The target is the same in experiment [3]. In words: FACS on CMT.64 cells; IFN * (so in the source), peptide +, hβ2m +.
Experiment [4] has the same target. In words: FACS on RMA-S cells; IFN +, peptide +, hβ2m +.
For experiment [5] the target is unchanged. The experiment can be described thus: FACS on RMA-S cells; IFN +, peptide -, hβ2m +.
The target is the same in experiment [6]. In words: FACS on RMA cells; IFN -, peptide +, hβ2m +.
The target is the same in experiment [7]. In words: FACS on RMA-S cells; IFN +, peptide +, hβ2m -.
Experiment [8] shares this target. The experiment can be described thus: FACS on CMT.64 cells; IFN -, peptide -, hβ2m -.
Experiment [9] has the same target. In words: FACS on CMT.64 cells; IFN -, peptide +, hβ2m +.
For experiment [10] the target is unchanged. The experiment can be described thus: FACS on RMA cells; IFN +, peptide +, hβ2m -.
Experiment [11] has the same target. The experiment can be described thus: FACS on CMT.64 cells; IFN +, peptide -, hβ2m -.
Experiment [12] has the same target. The experiment can be described thus: FACS on RMA cells; IFN +, peptide -, hβ2m -.
Experiment [13] shares this target. In words: FACS on RMA-S cells; IFN -, peptide -, hβ2m -.
Experiment [14] shares this target. In words: FACS on RMA-S cells; IFN +, peptide -, hβ2m -.
Experiment [15] shares this target. In words: FACS on RMA-S cells; IFN -, peptide +, hβ2m +.
Experiment [16] has the same target. The experiment can be described thus: FACS on RMA cells; IFN +, peptide +, hβ2m +.

UniProt P01901, sequence (P01901 22-305 limits assumed): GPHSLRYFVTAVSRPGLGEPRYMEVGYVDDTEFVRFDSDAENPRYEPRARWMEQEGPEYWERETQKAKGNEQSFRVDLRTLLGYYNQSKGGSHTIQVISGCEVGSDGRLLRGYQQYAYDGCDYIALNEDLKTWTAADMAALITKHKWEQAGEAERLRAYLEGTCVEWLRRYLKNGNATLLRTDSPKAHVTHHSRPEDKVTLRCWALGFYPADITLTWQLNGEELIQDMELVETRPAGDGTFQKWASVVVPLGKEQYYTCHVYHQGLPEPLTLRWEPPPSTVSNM

As to “142-23.3 anti H-2 K^b monoclonal antibody”, the fluorescence units (arbitrary fluorescence units) turned out to be 164 in [1]; 438 in [2]; 35 in [3]; 41 in experiment [4]; 10 in experiment [5]; 242 in experiment [6]. Moreover, the fluorescence units (arbitrary fluorescence units) in experiment [7] is 10; in experiment [8] it was 5; in experiment [9], 8; in [10] it was 606; in experiment [11], 26; in experiment [12] it was 346. The fluorescence units (arbitrary fluorescence units) was 12 in [13], 12 in experiment [14], 70 in experiment [15] and 780 in experiment [16].
